assay: yeast display, Sf9 membrane polyspecificity reagent, FACS + sequencing; frameworks hold sequencing errors
Outline: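 Sorting gates, low and high (top ~1%), were placed on anti-HA fluorescence to track expression and on streptavidin fluorescence to track reagent binding. A clone's polyreactivity label is taken from the gate it came out of. The reagent was 10% biotinylated, detergent-solubilized Sf9 membrane, applied for 1 hour at 4 °C to galactose-induced yeast display cells.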

Row | Sequence | polyreactivity (PSR sort gate)
1 | QVQLVESGGGLVQAGGSLRLSCAASGGTFSYYAMGWYRQAPGKERELVAAISKRGGSTYYADSVKGRFTISRDNAKNTVYLQMNSLKPEETAVYYCARGYSWSVGYPRVQDMDYWGQGTQVTVSS | high polyreactivity
2 | QVQLVESGGGLVQAGGSLRLSCAASGYTLVGYAMGWYRQAPGKEMELVAVISGSGGSTRYADSVKGRFTISRDNAKYTVYLQMNSLNPEDTAVYYCAARQPRTQAVYEGYYWGQGTQVTVSS | high polyreactivity
3 | QVQLVESGGGLVQAGGSLRLSCAASGITFSTYAMGWYRQAPGKERELVAAITKSGGSTYYADSVKGRFTISRDNAKNTVYLQMNSLKPEDTAVYYCAAKGWIWNPYNYWGQGTQVTVSS | low polyreactivity
4 | QVQLLESGGGLVQAGGSLRLSCDASGITFGPNAMGWYRQAPGKERELVATISSSGGSTYYSDSVKGRFTISRDNAKNTVLLQMKSLKPEDTAVYYCNSGFDPYLGAYDYWGQGTQVTVSS | low polyreactivity
5 | QDQLVESGGGLVQAGGSLRLSCAASGRIFGWYAMGWYRQAPGKEREFVAAISRGGSTNYADSVKGRFTISRDNAKNTVYLQMNSLKAEDTAVYYCNARKRGSRLRREFDYWGQGTQVTVST | high polyreactivity
6 | QVQLVESGGGLVQAGGSLRLSCAASRFIFQPYAMGWYRQAPGKERELVAAITSRGGRTYYADSVKGRFTISRDNAKNTVYLKMNSLKPEDSAVYYCNADIYASEYYYWGQGTQVTVSS | low polyreactivity
7 | QVQLVESGGGLVQAGGSLRLSCAASGSTFPEYAMGWYRQAPGKERELVADISSGGDTSYADSVKGRFTISRDNAKNTVYLQMNSLNPEDTAVYYCAAGTAGTTGSPKFSGYGYDYWGQGTQVTVSS | low polyreactivity
8 | QVQLVESGGGLVQAGGSLRLSCAASGRTFYVYAMGWYRQAPGKERELVAAISQDDGGTYYADSVKGRFTISRDNAKNTVYLQMNSLKPEDTAVYYCAAKEWRYGYDYGYWGQGTQVTLSS | low polyreactivity
9 | QVQLVESVGGIVQAGGSLRLSCAASGRTFTYNVMGWYRQAPGKEMELVAAITSGGSNYADSVKGRFTISRDNAKNTVYLQMNSLTPEDTAGYYCATDYYEDVTIGYDYWGQGTQVTVSS | low polyreactivity
10 | QVQLVESGGGLVQAGGSLRLSCAASGRIFIHYAMGWYRQAPGKERELVAAISWGGGRTYYADSVKGRFTISRDNAKNTVYLQMNSLKPEDTAVYYCAAAGRGSGYDYWGQGTQVTVSS | high polyreactivity
11 | QVQLVESGGGLVQAGGSLRLSCAASGRTFGYYAMGWYRQAPGKERELVAAINSRGGSTYYADSVKGRFTISRDNAKNTVYLQMNSLKPEDTAVYYCAVVRWRHYIFATYDYWGQGTQVTVSS | high polyreactivity
12 | QVQLVESGGGLDQAGGSLRLSCAASGGIFSVYAMGWYRQAPGKEREFVAAISKSGGRTYYADSVKGRFTISRDTAKKTVYLQMNCLKQVDTAVYYCNADVYPYYRKPWMDYWGQGSQVTVSS | low polyreactivity
13 | QVQLVESGGGLVQAGGSLRLSCAASGFTFVGNAMGWYRQAPGKERELVATITSGGNTKYADSVKGRFTISRDNAKNTVYLQMNSLKPEDTAVYYCAAAKYNYRRFNSWGQGTQVTVSS | low polyreactivity
14 | QVQLVESGGGLVQAGGSLRLSCAASGRIFVPYVMGWYRQAPGKDRELVASISDSDTSTYYADSVKGRFTISRDNAKNNVYLQMNSMKPEDTAVYYCNVDYWGQGTQVTVSS | low polyreactivity
15 | QVQLVESGGGLVQAGGSLRLSCAASGSSFGGYARGWYRQAPGKERELVAAISNGDRTNYADSVKGRFTISRDNAKNTVYLQLNSQKPEYTAVYDCATQPLTWSSYRWDWRAQFDHWGQGTQVTVSS | low polyreactivity
16 | QVQLVESGGGLVQAGGSLRLSCADSGSIFQPYAMGWYRQAPGKERELVAAINGRGGSTHYADSVKGRFTISRDNEKNSVYLQMNSLKPEDTAVYDCAARYYRDYRWYTYAYDYWGQGTQVTVSS | high polyreactivity
17 | QVHLVESGGGLVQAGGSLRLSCAASGITFYYYAMGWYRQAPGKERELVAAIDTDGSTYYADSVKGRFTVSRDNAKNTVYLQMNILKPEDTAVYYCAAVIEYYPYSGYIYDYWGQGSQVTVSS | high polyreactivity
18 | QVQLVESGGGLVQAGGSLRLSCAASGLIFYAYYMGWYRQAPGKERELVAAISYSGGSTYYADSVKGRFTISRDNAKNTVYLQMNSLKPEDTSVYYCAADDGISTYEYWGQGTQVTVSS | high polyreactivity
19 | QVQLVESGGCLVQAGGSHRLSCASSGRTFYRKAMGWYRQAPGKERELVAAISSGTSTNYADSVKGRFTISRDYAKNTVYLQMNSLKPEDTAVYYCAKERPRGAPAYYSRFYDYWGQGTQVTVSS | high polyreactivity
20 | QVQLVESGGGLVQAGGSLRLSCAASGYIFPGNAMGWYRQAPGKERELVAAISSRGGRTYYADSVKGRFTISRDNAKNTVYLQMNSLKPEDTAVYYCAKGGKVGSTLEYDYWGQGTQVTVSS | high polyreactivity
21 | QVQLVESGGGIVHEGGSLRLSCAASGSIFFGYAMGWYRLAPGKELELVAAISASGGLTFYADSLKGRFTISRDNAKNTVYLQMNSLKPEDPAVYYCAKRGRSTYGYDYWGQGTQVTVSS | high polyreactivity

Row | Sequence | polyreactivity (PSR sort gate)
22 | QVQLVESGGGLVQAGGSLRLTCAASGRTFAIYAMGWYRQAPRKEREFFDAISWSGGDTYYADSVKGRFTISRDNAKNTVYLQMNSLKAEDTAVYYCAARYIDYEGRDLQYELDYWGQGTQVSVSS | low polyreactivity
23 | QVQLVESGGGLVQPGGSLRLSCAASGRISSYYAMGWYRQAPGKERELVAAISNAGSTKYADSVKGRFTISRDNAKNTVYLQMNRLKPEDTAVYYCNARSYRWSWVLRYDYWGKGTQVTVSS | high polyreactivity
24 | QVQLVESGGGLVQAGGSLRLSCAASGRIFGGYAMGWYRQAPGKERELVAVITDGGSTNYADSVKGRFTISRDNAKNTVYLQMNSLKPEDTAVYYCAADSDGDEPPYDYWGQGTQVTVSS | low polyreactivity
25 | QVQLVESGGGLVQAGGSLRLSCAASGRIFGTDVMGWYRQAPGKERELVARITGGGSTNYADSVKGRFTISRDNAKNTVYFQMNSLKPEDTAVYYCARDYGPYLSPENPAPMDYWGQGTQVTVSS | low polyreactivity
26 | QVQLLESGVGLDQAGGSLRLSCAASGSTFNRNAMGWYRQAPGKERELVAAITYSGGSTYYADSVKGRFTISRDNAKNTVYLQMNSLNPEDTAVYYCNAPYAGMGYWGQGTQVTVSS | low polyreactivity
27 | QVQLVESGGGLVQAGGSLRLSCAASRRTFSYNTMGWYRQAPGTERELVARITWGGGSTNYADSVKGRFTISRDNAKNTVYLQMNSLKPEDTAVYYCAAGPSVPYGPQKVDYWGQGTQVTVSS | low polyreactivity
28 | QVQLVESGGGLVQAGGSLRLSCAASGNTFYGYTMGWYRQAPGKERELVAAISSRGGSTYYADSVKGRFTISRDNAKNTVYLQMISLKPEDTAVYYCAAVRPVKKFPYCYWGQGTQVTVSS | high polyreactivity
29 | QVQLVESGGGLVQAGGSLRLSCAASGIIFQRNDMGWYRQAPGKEREFVAAITYIGGSTYYADSVKGRFTISRDNAKNTVYLQMNSLKPEDTAVYWGQGTQVTVSS | low polyreactivity
30 | QVQLVESGGGLVQAGGRLRLSCAASGFIFLNYTMGWYRQAPGKEREMVADISNGSDRTYFADSLKGRFTISRENAKNTVYLQMNSLKPEDTAVYYCAKDRDFSSPPTESGFDYWGQGTQVTVSS | low polyreactivity
31 | QVQLVESGGGLVQAGGSLRLSCAASGRIFEVYAMGWYRQAPGKERELVAAIRSGGNTYYADSVKGRFTISRDNAKNTVYLQMISLKPEDTAVYYCAARYKPPFGGYTYYYWGQGTQVTVSS | high polyreactivity
32 | QVQLVESGGGLFQAGGSLRLSCAASGNTFLRNAMGWYRQPPWKERELVAAISRSGGRTYYADSVKGSFTISRDNAKNTVYLQMISLKPDDTAVYYCAVVTQFGDGYYWGQGTQVTVSS | high polyreactivity
33 | QVQLVESGGGLVQAGGSLRLSCAASGRIFWYYAMGWSRQAPGKERELVATISSRSGSTYYADSVKGRFTISRDNAKNTVYLQMNSLKPEDTAVYYCAAGTPYYLGYRHNTGLFDYWGQGTQVTVSS | high polyreactivity
34 | QDQLVESGGGLVQAGGSLRLSCAASGFTLHVYAMGWYRQAPGKERELVAAISTGGNTNYGDSVKGRFTISRDNAKNTVYLQMNSLKPEDTAVYYCNARYTSRRSRRPYYYWGQGTQVTVSS | high polyreactivity
35 | QVQLVESGGGLVQAGGRLRLSCAASGIIFPRYAMGWYRQAPGKERELVAAISGSGVGTYYADSVKGRFTISRDYAKNTVYIQMNSLKPEDTAVYSCATRYQWGGPYYRYDYWGQGTQVTVSS | high polyreactivity
36 | QVQLVESGGGLVQAGGSLRLSCAASGINFNKYAMGWYRQAPGKEREFVAAITYRGGSTYYADSVKGRFTISRDNAKNTVYFQMNSLKPEDTAVYYCAARRITTYYYWGQGTQVTVSS | high polyreactivity
37 | QVQLVESGGGLVQAGGSLRLSCSASGFIFRYNAMGWYRQAPGKEREFVAAISQGGASTYYADSVKGRFTISRDNAKNTVYLQMNSLKPEDTAVYYCNAVVDTSKYTDYYWGQGTQVTVSS | low polyreactivity
38 | QVQLVESGGGLVQAGGSLRLSCAASGSIFGINAMGWYRQAPGKERELVAGISSRGGSTYYADSVKGRFTISRDNAKNTVYLQMNSLKPEDTAVYYCAKRYGRRYGRLHDYWGQGTQVTVSS | high polyreactivity
39 | QDQLVESGGGLVQAGGSLRLSCAASGSIFPHNAKGSYRQAPGKERELVASITSRGGITYYADSVKGRFTISRDNAKNTVYLQMNSLKPEDTAVYYCAADTYTDGYDYWGQGTQVTVSS | low polyreactivity
40 | QVQLVESGGGLFQAGGSLRLSCAPSGSIFQYNAMGWYRQAPGKERELVAAINRRGTRTYYADSVKGRFTISRDNAKNTVYLQMNSLKPEDTAVYYCNKYQSTDVRSSYSAGYGYWGQGTQVTVSS | high polyreactivity
41 | QVQLVESGGGLVQAGGSLRLSSAASGITFYWYAMGWYRQAPGKERELVAASTRSVGSTYYADSVNGRFTISRDNAKNTVYLQMNSLKPEDTAVYYCAADFYYYGFDYWGQGTQVTVSS | low polyreactivity

From the nanobody polyreactivity screen of Harvey et al. (2022)
